From US20190049463A1 (VIB VZW, published 2019) come the findings set out here.

In experiment [1] the target is β2AR truncated after amino acid 365 (β2AR-365), native (human) (UniProt P07550). Briefly: cell-based or functional assay.
For experiment [2], the target named is T1, β2AR truncated after amino acid 365 (β2AR-365), native (human, UniProt P07550 1-365).
T1 construct: Expressed in Sf9 insect cells; Used detergent-solubilized, in phospholipid vesicles, in Sf9 membranes or in HDL particles; In the bimane assays it carried monobromobimane on Cys265; also called WT β2AR
Put plainly: listed as β2AR-specific; phage selection and ELISA on reconstituted β2AR-365. As for the experimental part:
In a first screen we compared the binding of the nanobodies on the native and heat denatured β₂AR antigen in an ELISA. […] Next, this plate was incubated at 80° C. for two hours.
A single llama received six weekly administrations of the reconstituted truncated β₂AR. Lymphocytes were isolated from the blood of the immunized llama and total RNA was prepared from these cells. […] Antigen-bound phages were recovered from antigen-coated wells either with thriethylamine pH11 and neutralized with Tris-HCl pH7 or by the addition of freshly grown TG1 E. coli cells. After two rounds of bio-panning, 96 individual colonies were randomly picked and the nanobodies produced as a soluble HIS-tagged protein in the periplasm of the TG1 cells.
(In general: In an ELISA, binding on a coated surface is turned into a signal by an enzyme label.)

Experiment [3] deals with T1, β2AR truncated after amino acid 365 …. Put plainly: cell-based or functional assay.
For experiment [4], the target named is β2AR-T4L fusion protein (third intracellular loop replaced by T4 lysozyme, truncated at position 365) (human) (UniProt P07550). Put plainly: cell-based or functional assay.

Numbering of substitutions follows the chain as printed.

Turning to Gs heterotrimer, in experiment [1], the Ki of (-)-isoproterenol, high affinity state, β2AR/HDL reconstituted with Gs amounted to 1.07 nM; the Ki of (-)-isoproterenol, low affinity state, β2AR/HDL reconstituted with Gs was 95.3 nM; the Ki of (-)-isoproterenol, low affinity state, β2AR/HDL reconstituted with Gs in the presence of 10 µM GTPγS was 95.2 nM; the fold increase of the affinity of isoproterenol for β2AR/HDL was determined as 100 fold.

B1: Nanobody CA2784 (VHH)
VHH: QVQLQESGGGLVQAGGSLRLSCAASGSIFSINAMGWYRQAPGKQRELVAAITSGGSTTYADSVKGRFTVSRDNAKNTVYLQMIRLKPEDTAVYYCHVRDIYSDFLGQYEYDYWGQGTQVTVSS
notes: also called NB84 (short notation shared with CA3484)
For B1, in experiment [2], the binding result is “binds”.

B2: Nanobody CA3422 (VHH)
VHH: QVQLQESGGGLVQAGGSLRLSCAASGSIFSINAMGWYRQAPGKQRELVAASTSGDITNYADSVKGRFTISRDNAKNTVYLQMNSLEPEDTGVYYCNARGIYSDYAFADFNSWGQGTQVTVSS
notes: also called NB22
As for B2, the binding result in experiment [2] is “binds”.

B3: Nanobody 67, reference number CA2767 (VHH)
VHH: QVQLQESGGGLVQAGGSLRLSCAASGTISSFIAMGWYRQSPGKQRELVAGITSGGETNYEDSVKGRFTISRDNAKNTLYLQMNTLKPEDTAVYYCNAQVFADIFNLINYWGQGTQVTVSS
As for B3, the “Ki of (-)-isoproterenol for β2AR, [3H]-DHA competition on Sf9 membranes with 1 µM nanobody (295 without nanobody)” value (“Ki of (-)-isoproterenol … (295 without nanobody)” for short) in experiment [3] turned out to be 19.4 nM.

B4: Nanobody-80 (Nb80), reference number CA2780 (VHH, not shown: small tags and cut ends)
VHH: QVQLQESGGGLVQAGGSLRLSCAASGSIFSINTMGWYRQAPGKQRELVAAIHSGGSTNYANSVKGRFTISRDNAANTVYLQMNSLKPEDTAVYYCNVKDYGAVLYEYDYWGQGTQVTVSS
Take B4: in experiment [4], the Ki of (-)-isoproterenol, high affinity state, β2AR-T4L/HDL with 1 µM Nb80 (33.5 without) was determined as 0.56 nM and the fold increase of the affinity of isoproterenol for β2AR-T4L/HDL turned out to be 60 fold.

B5: Nanobody CA2764 (VHH)
VHH: B4 VHH with N61D, A75K
notes: also called NB64
On to B5, for which the binding result in experiment [2] was “binds”.

B6: Nanobody CA3413 (VHH)
VHH: B4 VHH with Q44R
notes: also called NB13
For the molecule B6, in experiment [2], the binding result was “binds”.

B7: Nanobody 65, reference number CA2765 (VHH)
VHH: B4 VHH with N61D, K64R, A75K
For the molecule B7, the “Ki of (-)-isoproterenol … (295 without nanobody)” value in experiment [3] amounted to 13.8 nM.

B8: Nanobody CA3431 (VHH)
VHH: B4 VHH with A14P
notes: also called NB31
For B8, the binding result in experiment [2] is listed as “binds”.

B9: Nanobody 71, reference number CA2771 (VHH)
VHH: QVQLQESGGGLVQPGGSLRLSCAASGFAFSSYELRWYRQAPGKQHELVAGITTGGNTYYADSVKGRFTISRDNAKNTVYLQMSNLRPEDTAVYACNANWDLLSDYWGQGTQVTVSS
As for B9, the “Ki of (-)-isoproterenol … (295 without nanobody)” value in experiment [3] was found to be 10.6 nM.

B10: Nanobody CA3477 (VHH)
VHH: QVQLQESGGGLVQAGGSLRLSCAASGSIFSLNDMGWYRQAPGKQRELVAAITSGGSTNYADSVKGRFTISRDNAKNTVYLQMNSLKPEDTAVYYCNAKVAGTFSIYDYWGQGTQVTVSS
notes: also called NB77
For B10, the binding result in experiment [2] was “binds”.

B11: Nanobody CA3472 (VHH)
VHH: B10 VHH with A14P, T52S, S56R, T57L, K98V, I105T
notes: also called NB72 (short notation shared with CA2772)
Turning to B11, the binding result in experiment [2] is on record as “binds”.

B12: Nanobody CA3433 (VHH)
VHH: B10 VHH with Q44L, I51V
notes: also called NB33
As to B12, the binding result in experiment [2] is “binds”.

B13: Nanobody CA3475 (VHH)
VHH: B10 VHH with S17P, K98V, I105T
notes: also called NB75
On to B13, for which the binding result in experiment [2] is “binds”.

B14: Nanobody CA3420 (VHH)
VHH: B10 VHH with E46D, N58K, I69V
notes: also called NB20
As for B14, the binding result in experiment [2] was “binds”.

B15: Nanobody CA3484 (VHH)
VHH: B10 VHH with Q44L, N58K, S62P, P87A
notes: also called NB84 (short notation shared with CA2784)
As for B15, the binding result in experiment [2] is given as “binds”.

B16: Nanobody CA3424 (VHH)
VHH: QVQLQESGGGLVQAGGSLRLSCAASGSVFSLPTAGWYRQAPGKQRELVALITGSGSTHYADSVKGRFAISREYSKKTMDLQMNSLHREDTAVYFCYYRSTFTEYWGQGTQVTVSS
notes: also called NB24
On to B16, for which, in experiment [2], the binding result is recorded as “binds”.
